Experimental data from patent US20250147035A1, “METHODS FOR DETECTION OF POST-TRANSLATIONAL MODIFICATIONS” (Quantum-Si Incorporated, priority 2023, published 2025).
Read-outs that look alike come from different tables or passages of the source. Primed or numbered codes have the meaning given here. Where no end group is shown, it is not given here. [ ]: non-standard residue; d: D form. pT = C[C@@H](OP(=O)(O)O)[C@H](N)C(=O)O; pS = N[C@@H](COP(=O)(O)O)C(=O)O; Biotin′ = not defined here

B1: PM19 (Human/RBM15) (other)
chain: MAPVASASPKLCLAWQGMLLLKNSNFPSNMHLLQGDLQVASSLLVEGSTGGKVAQLKITQRLRLDQPKLDEVTRRIKVAGPNGYAILLAVPGSSDSRSSSSSAASDTATSTQRPLRNLVSYLKQKQAAGVISLPVGGNKDKENTGVLHAFPPCEFSQQFLDSPAKALAKSEEDYLVMIIVRGFGFQI
B2: PM20 (Human/RB15B) (other)
chain: MQLGWNGLLVLKNSCFPTSMHILEGDQGVISSLLKDHTSGSKLTQLKIAQRLRLDQPKLDEVTRRIKQGSPNGYAVLLATQATPSGLGTEGMPTVEPGLQRRLLRNLVSYLKQKQAAGVISLPVGGSKGRDGTGMLYAFPPCDFSQQYLQSALRTLGKLEEEHMVIVIVRDTA
B3: PM21 (Human/PHF3) (other)
chain: MTFLARLNFIWKGFINMPSVAKFVTKAYPVSGSPEYLTEDLPDSIQVGGRISPQTVWDYVEKIKASGTKEICVVRFTPVTEEDQISYTLLFAYFSSRKRYGVAANNMKQVKDMYLIPLGATDKIPHPLVPFDGPGLELHRPNLLLGLIIRQKL
B4: PM23 (Human/Scp1) (other)
chain: MAFEELRVQAENARLDMHFKLKEDHEKIQHLQEEYKKEVNDKENQVSLLLIQRTEKENKMKDLTFLLEESRDKVNQLEDKTKLQDENVKELNKKKDHLTSELEDTKMSLQRSMNTQKALEEDLQIATKTIYQLTEEKEAQMEEFNKAKTDHSFMVTELKATTCTLEELLRTEQQRLVKNED
B5: PM02 (Human/14-3-3 protein theta) (other)
chain: MEKTELIQKAKLAEQAERYDDMATCMKAVTEQGAELSNEERNLLSVAYKNVVGGRRSAWRVISSIEQKTDTSDKKLQLIKDYREKVESELRSICTTVLELLDKYLIANATNPESKVFYLKMKGDYFRYLAEVACGDDRKQTIDNSQGAYQEAFDISKKEMQPTHPIRLGLALNFSVFYYEILNNPELACTLAKTAFDEAIAELDTLNEDSYKDSTLIMQLLRDNLTLWTSDSAGEECDAAEGAEN
B6: PM03 (Human/14-3-3 protein eta) (other)
chain: MGDREQLLQRARLAEQAERYDDMASAMKAVTELNEPLSNEDRNLLSVAYKNVVGARRSSWRVISSIEQKTMADGNEKKLEKVKAYREKIEKELETVCNDVLSLLDKFLIKNCNDFQYESKVFYLKMKGDYYRYLAEVASGEKKNSVVEASEAAYKEAFEISKEQMQPTHPIRLGLALNFSVFYYEIQNAPEQACLLAKQAFDDAIAELDTLNEDSYKDSTLIMQLLRDNLTLWTSDQQDEEAGEGN
B7: PM05 (Human/14-3-3 protein beta/alpha) (other)
chain: MTMDKSELVQKAKLAEQAERYDDMAAAMKAVTEQGHELSNEERNLLSVAYKNVVGARRSSWRVISSIEQKTERNEKKQQMGKEYREKIEAELQDICNDVLELLDKYLIPNATQPESKVFYLKMKGDYFRYLSEVASGDNKQTTVSNSQQAYQEAFEISKKEMQPTHPIRLGLALNFSVFYYEILNSPEKACSLAKTAFDEAIAELDTLNEESYKDSTLIMQLLRDNLTLWTSENQGDEGDAGEGEN
B8: PM10 (Human/MCPH1) (other)
chain: MSGRGKKPTRTLVMTSMPSEKQNVVIQVVDKLKGFSIAPDVCETTTHVLSGKPLRTLNVLLGIARGCWVLSYDWVLWSLELGHWISEEPFELSHHFPAAPLCRSECHLSAGPYRGTLFADQPAMFVSPASSPPVAKLCELVHLCGGRVSQVPRQASIVIGPYSGKKKATVKYLSEKWVLDSITQHKVCAPENYLLSQ
B9: PM13 (Saccharomyces cerevisiae/FHA1) (other)
chain: MENITQPTQQSTQATQRFLIEKFSQEQIGENIVCRVICTTGQIPIRDLSADISQVLKEKRSIKKVWTFGRNPACDYHLGNISRLSNKHFQILLGEDGNLLLNDISTNGTWLNGQKVEKNSNQLLSQGDEITVGVGVESDILSLVIFINDKFKQCLEQNKVDRIRSNLKNTSKIASPGLTSSTASSMVANKTGIFKDFSIIDEVVGQGAFATVKKAIERTTGKTFAVKIISKRKVIGNMDGVTRELEVLQKLNHPRIVRLKGFYEDTESYYMVMEFVSGG
B10: PM14 (Saccharomyces cerevisiae/RAD53) (other)
chain: MEDQDGKIQGFKIPAHAPIRYTQPKSIEAETREQKLLHSNNTENVKSSKKKGNGRFLTLKPLPDSIIQESLEIQQGVNPFFIGRSEDCNCKIEDNRLSRVHCFIFKKRHAVGKSMYESPAQGLDDIWYCHTGTNVSYLNNNRMIQGTKFLLQDGDEIKIIWDKNNKFVIGFKVEINDTTGLFNEGLGMLQEQRVVLKQTAEEKDLVKKLTQMMAAQRANQPSASSSSMSAKKPPVSDTNNNGNNSVLNDLVESPINANTGNILKRIHSVSLSQSQIDPSKKVKRAKLDQTSKGPENLQFS
B11: PM18 (Human/MINT) (other)
chain: MVDMVQLLKKYPIVWQGLLALKNDTAAVQLHFVSGNNVLAHRSLPLSEGGPPLRIAQRMRLEATQLEGVARRMTVETDYCLLLALPCGRDQEDVVSQTESLKAAFITYLQAKQAAGIINVPNPGSNQPAYVLQIFPPCEFSESHLSRLAPDLLASISNISPHLMIVIASV
B12: PS33: SH domanin Fyn Triple mutant, SEQ ID NO: 35; PTM-specific affinity reagent that specifically binds to phospho-tyrosine (protein)
chain: MGAMDSIQAEEWYFGKLGRKDAERQLLSFGNPRGTFLIRESETVKGAYALSIRDWDDMKGDHVKHYLIRKLDNGGYYITTRAQFETLQQLVQHYSERAAGLSSRLVVPSHK

Key:
[1] = molecular target: T1, …-Biotin; test: Octet (BLI), fixed reagent concentration
T1 sequence (peptide, C-terminal Biotin): SAKLDEESILKQ

[2] = molecular target: T2, p…-Biotin; test: Octet (BLI), fixed reagent concentration
T2 sequence (peptide, phosphothreonine at 1; C-terminal Biotin): TAKLDEESILKQ

[3] = molecular target: EFLN-pT-RFYK; test: Octet (BLI), sensors coated with peptide
[4] = molecular target: pT-…; test: Octet (BLI), sensors coated with peptide
[5] = system: p[…]-Biotin; test: Octet binding assay of PTM-specific affinity reagent candidates, pTQR peptide; details: fixed concentration of reagent
Method: This Example characterizes an exemplary phosphorylated threonine recognizer for use in methods of the disclosure. Octet binding assays at a fixed concentration of PTM-specific affinity reagent candidates were evaluated for binding with phospho-threonine, phospho-serine containing peptides (p[…]-Biotin; p[…]-Biotin; p[…]-Biotin), and control peptides without modifications ([…]-Biotin; […]-Biotin).

[6] = system: p[…]-Biotin; test: Octet binding assay of PTM-specific affinity reagent candidates, pTA peptide; details: fixed concentration of reagent
Text: (§1) This Example characterizes an exemplary phosphorylated threonine recognizer for use in methods of the disclosure.

[7] = molecular target: QRFpYLAYPDDD-FITC; test: bulk fluorescence polarization, 0.5 µM PM49, FITC-labeled peptide
[8] = molecular target: p…; test: Octet (BLI), sensors coated with peptide
[9] = molecular target: T3, p…-Biotin; test: Octet (BLI), fixed reagent concentration; remark: listed apart in the source
T3 sequence (peptide, phosphoserine at 1; C-terminal Biotin): SAKLDEESILKQ

[10] = molecular target: T4, pSAKLDEESILKQ-Biotin; test: Octet (BLI), fixed reagent concentration;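 note: octet binding of candidate PTM-specific affinity reagents, each at one fixed concentration, to biotinylated phospho-Thr or phospho-Ser peptides, with unmodified biotinylated peptides serving as controls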
T4 peptide: [pS]AKLDEESILKQ-{Biotin′}
Method: (§3) Octet binding assays at a fixed concentration of PTM-specific affinity reagent candidates were evaluated for binding with phospho-threonine, phospho-serine containing peptides (p[sequence]-Biotin; p[sequence]-Biotin; p[sequence]-Biotin), and control peptides without modifications ([sequence]-Biotin; [sequence]-Biotin).

[11] = molecular target: T5, TAKLDEESILKQ-Biotin; test: Octet (BLI), fixed reagent concentration;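 note: octet binding of candidate PTM-specific affinity reagents, each at one fixed concentration, to biotinylated phospho-Thr or phospho-Ser peptides, with unmodified biotinylated peptides serving as controls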
T5 peptide: TAKLDEESILKQ-{Biotin′}
Method: as §3

[12] = molecular target: T6, pTAKLDEESILKQ-Biotin; test: Octet (BLI), fixed reagent concentration;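 note: octet binding of candidate PTM-specific affinity reagents, each at one fixed concentration, to biotinylated phospho-Thr or phospho-Ser peptides, with unmodified biotinylated peptides serving as controls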
T6 peptide: [pT]AKLDEESILKQ-{Biotin′}
Method: as §3

[13] = system: SAKLDEESILKQ-Biotin; test: Octet binding assay of PTM-specific affinity reagent candidates, SA control peptide; details: SA = […]-Biotin (control); fixed concentration of reagent
Text: as §1

[14] = molecular target: p…-Biotin; test: Octet (BLI), fixed reagent concentration; remark: listed apart in the source
[15] = system: LAQ-pY-LAYPDDDK; test: On-chip fluorescence signature of PTM-specific affinity reagent binding before sequencing (Example 1); details: polypeptide with PTM, collected for 30 minutes
Method: (§2) A control polypeptide ([…]) and a model polypeptide comprising a phospho-tyrosine (LAQ-pY-[…]) were tested in this Example. Each polypeptide was first immobilized onto independent surfaces of a chip. A post-translational modification-specific (PTM-specific) affinity reagent that binds to phospho-tyrosine (PS33 (SEQ ID NO: 35)) and comprised a fluorescent label was then added to the chip and allowed to contact the polypeptides. […] The chip was then washed to remove the PTM-specific affinity reagent. A protein sequencing analysis of the polypeptides was then performed. A mixture of labeled terminal amino acid recognition molecules was added to the chip and allowed to incubate for 15 minutes. After 15 minutes, a mixture of cleaving reagents (a mixture of aminopeptidases) was added to the chip. During these steps, a series of signal pulses indicative of association of the one or more terminal amino acid recognition molecules with successive amino acids exposed at a terminus of each polypeptide were collected while each polypeptide was being degraded.

[16] = system: LAQYLAYPDDDK; test: On-chip fluorescence signature of PTM-specific affinity reagent binding before sequencing (Example 1), control polypeptide; details: polypeptide without PTM, collected for 30 minutes
Method: as §2

Molecule | Octet binding assay response [1] | Octet binding assay response [2] | Octet binding assay response, pTQR [5] | Octet binding assay response [10] | Octet binding assay response [11] | Octet binding assay response [12] | other results
PM12 (Mycobacterium tuberculosis/FhaA) (from UniProt P71590 430-527) | 0.6 | 7.1 |  |  |  |  | Octet shift [3]: 6.8; Octet shift [4]: 4.4
PM16: Human/PLK1, SEQ ID NO: 16 |  |  | 2.1 |  |  |  | Octet binding assay response, pTA [6]: 1.7
PM49 (ABCAM® Biotin Anti-Phosphotyrosine antibody [EPR16871]) |  |  |  |  |  |  | fold tighter binding affinity against an N-terminal phospho-tyrosine [7]: 2 fold; Octet shift [8]: 10.2
PM06 (Human/14-3-3 protein zeta/delta) (from UniProt P63103 1-245) | 0.1 |  |  |  |  |  | Octet binding assay response [9]: 0.1
B1 | 0.1 | 1 | 1.0 | 0.1 | 0.2 | 0.3 | 
B2 | 0.2 | 0.5 | 0.5 | 0.2 | 0.2 | 0.3 | 
B3 | 0.1 | 0.5 | 0.5 | 0.2 | 0.2 | 0.3 | Octet binding assay response, SA [13]: 0.1
B4 | 0.1 | 0.3 | 0.3 | 0.1 | 0.2 | 0.2 | 
B5 | 0.3 |  |  | 0.3 | 0.3 | 0.3 | Octet binding assay response [14]: 0.5
B6 | 0.3 |  |  | 0.2 | 0.2 | 0.2 | Octet binding assay response [14]: 0.4
B7 | 0.2 |  |  | 0.2 | 0.2 | 0.2 | Octet binding assay response [14]: 0.2
B8 | 0.2 | 1 | 1.0 | 0.3 | 0.3 | 0.3 | Octet binding assay response, SA [13]: 0.2
B9 | 0.2 |  | 3.2 | 0.3 | 0.3 |  | Octet binding assay response ([2]; pTA phosphothreonine peptide): 1.8; Octet binding assay response ([2]; pTQR phosphothreonine peptide): 3.2; Octet binding assay response, pTA [6]: 1.8; Octet binding assay response, SA [13]: 0.2
B10 | 0.2 |  | 1.0 | 0.2 | 0.1 |  | Octet binding assay response ([2]; pTA phosphothreonine peptide): 1.1; Octet binding assay response ([2]; pTQR phosphothreonine peptide): 1; Octet binding assay response, pTA [6]: 1.1
B11 | 0.9 |  | 1.6 |  | 0.6 |  | Octet binding assay response ([2]; pTA phosphothreonine peptide): 0.7; Octet binding assay response ([2]; pTQR phosphothreonine peptide): 1.6; Octet binding assay response [9]: 0.6; Octet binding assay response, pTA [6]: 0.7; Octet binding assay response, SA [13]: 0.9
B12 |  |  |  |  |  |  | fluorescence signature representative of binding interaction(s) [15]: strong fluorescence signature; fluorescence signature representative of binding interaction(s) [16]: no fluorescence signature
